Results: US20110166208

System: bacterially-expressed calmodulin (non-methylated)

Sequence of Xenopus laevis calmodulin protein methyltransferase (chain, as listed by the source): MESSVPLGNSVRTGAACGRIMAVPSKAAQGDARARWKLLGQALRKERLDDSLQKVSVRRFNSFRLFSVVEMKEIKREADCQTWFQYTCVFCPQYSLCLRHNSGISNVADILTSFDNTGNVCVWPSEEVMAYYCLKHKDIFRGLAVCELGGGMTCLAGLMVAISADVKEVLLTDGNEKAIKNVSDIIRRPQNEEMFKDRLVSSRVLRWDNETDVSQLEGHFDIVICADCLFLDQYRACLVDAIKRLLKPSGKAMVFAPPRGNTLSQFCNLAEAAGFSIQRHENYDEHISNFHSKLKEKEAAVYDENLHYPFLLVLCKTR

Substance	catalytic activity	methyltransferase activity (in vitro)	incorporation of radiolabel from [3H-methyl]AdoMet into calmodulin (phosphorimage)	specific activity
Homo sapiens calmodulin protein methyltransferase, initially expressed clone with V209F (cDNA Accession BC 053733)	the initially expressed form of Hscalmodulin PKMT was catalytically inactive	–	–	–
Arabidopsis thaliana calmodulin protein methyltransferase	–	Each of the proteins exhibited robust methyltransferase activity (in vitro) toward non-methylated forms of calmodulin	–	–
Xenopus laevis calmodulin protein methyltransferase	–	Each of the proteins exhibited robust methyltransferase activity (in vitro) toward non-methylated forms of calmodulin	the radiolabel from [^3H-methyl]AdoMet was incorporated into calmodulin, in the presence of the recombinant calmodulin methyltransferases obtained from SEQ ID NO: 1, 2, and 3	–
Tribolium casteaneum calmodulin protein methyltransferase	–	Each of the proteins exhibited robust methyltransferase activity (in vitro) toward non-methylated forms of calmodulin	–	–
Rattus norvegicus calmodulin protein methyltransferase	–	Each of the proteins exhibited robust methyltransferase activity (in vitro) toward non-methylated forms of calmodulin	the radiolabel from [^3H-methyl]AdoMet was incorporated into calmodulin, in the presence of the recombinant calmodulin methyltransferases obtained from SEQ ID NO: 1, 2, and 3	56 nmoles min^-1 mg protein^-1
Homo sapiens calmodulin protein methyltransferase (valine at 209, catalytically active form)	alteration of the sequence of the clone to correspond to the gene-predicted valine restored catalytic activity to amounts similar to those observed for other cloned calmodulin KMTs	Each of the proteins exhibited robust methyltransferase activity (in vitro) toward non-methylated forms of calmodulin	the radiolabel from [^3H-methyl]AdoMet was incorporated into calmodulin, in the presence of the recombinant calmodulin methyltransferases obtained from SEQ ID NO: 1, 2, and 3	–
